Source: IntAct's records for PubMed 19804756

B1: Nibrin (Homo sapiens), O60934 (parent)
chain: MWKLLPAAGPAGGEPYRLLTGVEYVVGRKNCAILIENDQSISRNHAVLTANFSVTNLSQTDEIPVLTLKDNSKYGTFVNEEKMQNGFSRTLKSGDGITFGVFGSKFRIEYEPLVACSSCLDVSGKTALNQAILQLGGFTVNNWTEECTHLVMVSVKVTIKTICALICGRPIVKPEYFTEFLKAVESKKQPPQIESFYPPLDEPSIGSKNVDLSGRQERKQIFKGKTFIFLNAKQHKKLSSAVVFGGGEARLITEENEEEHNFFLAPGTCVVDTGITNSQTLIPDCQKKWIQSIMDMLQRQGLRPIPEAEIGLAVIFMTTKNYCDPQGHPSTGLKTTTPGPSLSQGVSVDEKLMPSAPVNTTTYVADTESEQADTWDLSERPKEIKVSKMEQKFRMLSQDAPTVKESCKTSSNNNSMVSNTLAKMRIPNYQLSPTKLPSINKSKDRASQQQQTNSIRNYFQPSTKKRERDEENQEMSSCKSARIETSCSLLEQTQPATPSLWKNKEQHLSENEPVDTNSDNNLFTDTDLKSIVKNSASKSHAAEKLRSNKKREMDDVAIEDEVLEQLFKDTKPELEIDVKVQKQEEDVNVRKRPRMDIETNDTFSDEAVPESSKISQENEIGKKRELKEDSLWSAKEISNNDKLQDDSEMLPKKLLLTEFRSLVIKNSTSRNPSGINDDYGQLKNFKKFKKVTYPGAGKLPHIIGGSDLIAHHARKNTELEEWLRQEMEVQNQHAKEESLADDLFRYNPYLKRRR
B2: DNA endonuclease ctp1 (Schizosaccharomyces pombe (strain ATCC 38366 / 972)), O74986 (parent)
chain: MNEEEHNKSVHWSIVYRQLGNLLEQYEVEIARLKSQLVLEKKLRIQVEKELESVKTKQISSSASSKVSSNTIQELDSTTDEDEIPGSDTVDEEDPSLNAPFSEKNQSVKIPPHSPTLPVQNASAFVKPISVPLGNVKEEKFLDTNPIGAESFESSDGEMHLRARSPEDMILLRETQPLAPLDINTLGVSDNRQKKGTEKKRPFEPEFLNDDVIRGNKRKALPAYECPDCQKFYELHGPVKESSVAPTWNDENRLGGGSLPNCKHQPLVQKVGRHRKLNIPKPIPNGFWESDFVD
partner: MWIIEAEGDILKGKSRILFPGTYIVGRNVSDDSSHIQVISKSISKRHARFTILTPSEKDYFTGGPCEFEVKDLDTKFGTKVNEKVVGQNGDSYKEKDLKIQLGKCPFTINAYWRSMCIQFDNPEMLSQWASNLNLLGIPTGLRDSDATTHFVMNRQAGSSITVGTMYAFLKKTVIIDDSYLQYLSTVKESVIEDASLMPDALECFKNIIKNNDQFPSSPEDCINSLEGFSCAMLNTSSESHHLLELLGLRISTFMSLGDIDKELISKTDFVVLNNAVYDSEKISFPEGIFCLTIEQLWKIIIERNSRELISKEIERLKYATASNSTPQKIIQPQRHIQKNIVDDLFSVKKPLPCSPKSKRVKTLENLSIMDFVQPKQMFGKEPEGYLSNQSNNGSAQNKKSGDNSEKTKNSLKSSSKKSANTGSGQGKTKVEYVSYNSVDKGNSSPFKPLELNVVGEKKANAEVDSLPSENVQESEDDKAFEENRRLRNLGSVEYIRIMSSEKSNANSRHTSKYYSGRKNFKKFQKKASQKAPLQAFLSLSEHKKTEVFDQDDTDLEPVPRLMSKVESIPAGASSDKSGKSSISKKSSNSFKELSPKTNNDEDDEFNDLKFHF
B3: DNA repair and telomere maintenance protein nbs1 (Schizosaccharomyces pombe (strain ATCC 38366 / 972)), O43070 (parent)
chain: B2 partner

Variants of: B1
Details: with mdc1_human MDC1, Q14676
Target sequence in this assay (Q14676 whole entry): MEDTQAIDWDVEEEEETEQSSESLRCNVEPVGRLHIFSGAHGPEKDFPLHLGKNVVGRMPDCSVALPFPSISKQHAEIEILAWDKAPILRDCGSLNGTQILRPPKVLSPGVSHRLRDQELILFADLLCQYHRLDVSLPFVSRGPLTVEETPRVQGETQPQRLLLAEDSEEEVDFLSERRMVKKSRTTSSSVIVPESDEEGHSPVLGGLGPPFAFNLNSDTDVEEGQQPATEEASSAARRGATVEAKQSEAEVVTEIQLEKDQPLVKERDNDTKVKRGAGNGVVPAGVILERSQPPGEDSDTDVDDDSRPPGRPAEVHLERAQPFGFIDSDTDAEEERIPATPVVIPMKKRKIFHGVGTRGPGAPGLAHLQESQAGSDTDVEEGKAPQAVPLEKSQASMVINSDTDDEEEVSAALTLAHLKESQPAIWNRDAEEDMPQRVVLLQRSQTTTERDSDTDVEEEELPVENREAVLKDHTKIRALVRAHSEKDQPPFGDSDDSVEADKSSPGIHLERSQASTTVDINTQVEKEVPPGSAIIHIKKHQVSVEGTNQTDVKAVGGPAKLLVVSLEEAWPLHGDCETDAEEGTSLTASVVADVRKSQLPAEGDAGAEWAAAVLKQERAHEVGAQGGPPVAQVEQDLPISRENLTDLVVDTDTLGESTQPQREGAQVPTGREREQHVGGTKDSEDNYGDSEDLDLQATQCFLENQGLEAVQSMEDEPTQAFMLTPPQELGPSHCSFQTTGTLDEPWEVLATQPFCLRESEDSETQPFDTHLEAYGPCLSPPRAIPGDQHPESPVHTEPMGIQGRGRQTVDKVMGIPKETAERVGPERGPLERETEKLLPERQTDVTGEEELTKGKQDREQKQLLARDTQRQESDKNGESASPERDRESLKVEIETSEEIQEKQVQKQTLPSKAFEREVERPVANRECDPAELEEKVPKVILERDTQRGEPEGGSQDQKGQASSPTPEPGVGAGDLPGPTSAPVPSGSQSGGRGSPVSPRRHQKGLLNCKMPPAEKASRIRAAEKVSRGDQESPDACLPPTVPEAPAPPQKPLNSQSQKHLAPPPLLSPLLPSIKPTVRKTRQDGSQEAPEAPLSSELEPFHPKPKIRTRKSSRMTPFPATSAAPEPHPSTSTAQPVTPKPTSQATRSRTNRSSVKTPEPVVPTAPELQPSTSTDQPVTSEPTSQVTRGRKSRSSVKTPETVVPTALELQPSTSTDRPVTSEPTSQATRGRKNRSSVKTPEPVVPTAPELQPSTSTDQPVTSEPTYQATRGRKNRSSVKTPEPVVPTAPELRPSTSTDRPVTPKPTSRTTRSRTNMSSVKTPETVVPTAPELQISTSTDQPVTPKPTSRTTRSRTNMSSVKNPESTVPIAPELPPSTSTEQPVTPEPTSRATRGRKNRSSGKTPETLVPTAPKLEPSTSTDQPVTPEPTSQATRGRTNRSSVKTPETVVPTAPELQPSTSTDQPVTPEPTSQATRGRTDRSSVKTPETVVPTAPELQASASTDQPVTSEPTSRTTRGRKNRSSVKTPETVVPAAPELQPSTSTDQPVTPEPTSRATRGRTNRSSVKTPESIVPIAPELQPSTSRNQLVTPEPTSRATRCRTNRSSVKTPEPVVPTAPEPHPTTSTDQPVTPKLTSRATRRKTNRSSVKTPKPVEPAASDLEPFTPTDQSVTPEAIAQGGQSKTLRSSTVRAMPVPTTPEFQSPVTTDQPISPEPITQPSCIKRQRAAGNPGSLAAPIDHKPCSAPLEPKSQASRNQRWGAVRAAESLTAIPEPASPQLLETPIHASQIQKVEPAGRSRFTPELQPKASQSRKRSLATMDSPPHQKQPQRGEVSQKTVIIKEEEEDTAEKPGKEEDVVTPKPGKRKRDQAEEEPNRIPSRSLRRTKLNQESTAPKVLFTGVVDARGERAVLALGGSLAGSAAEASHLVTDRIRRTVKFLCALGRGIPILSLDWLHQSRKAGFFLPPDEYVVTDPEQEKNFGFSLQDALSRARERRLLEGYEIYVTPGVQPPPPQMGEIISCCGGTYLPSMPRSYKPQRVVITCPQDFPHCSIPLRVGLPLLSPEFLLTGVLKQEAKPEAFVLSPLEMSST

effect of a mutation on the interaction	Variant
decreasing interaction	S42A
decreasing interaction	R28A
disrupting interaction	S42A;K160M
decreasing interaction	K160M

Variants of: B2
Details: with nbs1_schpo nbs1, O43070

effect of a mutation on the interaction	Variant
increasing interaction	D76A

Variants of: B3
Details: with mdc1_human MDC1, Q14676
Target sequence in this assay (Q14676 whole entry): as above

effect of a mutation on the interaction	Variant
decreasing interaction	K45A
decreasing interaction	K76A
decreasing interaction	G103D
